This note sets out measurements from publication PMC5007650, “Crystal structure of the two-subunit tRNA m^1A58 methyltransferase TRM6-TRM61 from Saccharomyces cerevisiae” (Scientific Reports, 2016).

Series [1] concerns the target T1, TRM6 from Saccharomyces cerevisiae (S. cerevisiae, UniProt P41814 1-478).
T1 construct: TRM6, non-catalytic subunit of the tRNA m1A58 methyltransferase, S. cerevisiae, full length; A selenomethionine derivative was used for phasing only; also called TRM6 subunit; source: bacteria, expression plasmid pETDuet-TRM6-TRM61, purified as the TRM6-TRM61 complex (Ni2+-NTA, Superdex 200)
T1 sequence (looked up): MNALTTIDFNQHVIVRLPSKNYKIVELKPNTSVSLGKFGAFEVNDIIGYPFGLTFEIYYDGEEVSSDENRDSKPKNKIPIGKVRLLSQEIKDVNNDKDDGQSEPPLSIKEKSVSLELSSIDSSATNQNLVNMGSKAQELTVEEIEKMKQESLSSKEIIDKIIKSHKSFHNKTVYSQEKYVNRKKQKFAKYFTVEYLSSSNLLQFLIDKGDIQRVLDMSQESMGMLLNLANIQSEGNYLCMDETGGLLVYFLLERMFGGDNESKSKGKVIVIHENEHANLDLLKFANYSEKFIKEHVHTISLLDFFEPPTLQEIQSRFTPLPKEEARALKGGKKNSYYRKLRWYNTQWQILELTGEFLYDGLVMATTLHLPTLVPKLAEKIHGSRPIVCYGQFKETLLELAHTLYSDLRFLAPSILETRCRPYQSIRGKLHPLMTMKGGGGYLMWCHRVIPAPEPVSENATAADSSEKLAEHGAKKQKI
As to the kind of experiment: crystal structure; sitting-drop vapour diffusion at 293 K, 0.1 M HEPES pH 7.5, 2% MPD, 10% PEG 6000; apo TRM6-TRM61 and TRM6-TRM61 with SAM, each at 2.2 Å; heterotetramer from symmetry-related molecules. The settings on record: both partners purified.

Series [2] deals with the molecule itself. Described as above.

B1: TRM61 from Saccharomyces cerevisiae (enzyme, S. cerevisiae, UniProt P46959 1-383, looked up)
chain: MSTNCFSGYKDLIKEGDLTLIWVSRDNIKPVRMHSEEVFNTRYGSFPHKDIIGKPYGSQIAIRTKGSNKFAFVHVLQPTPELWTLSLPHRTQIVYTPDSSYIMQRLNCSPHSRVIEAGTGSGSFSHAFARSVGHLFSFEFHHIRYEQALEEFKEHGLIDDNVTITHRDVCQGGFLIKKGDTTSYEFGNNETAASLNANVVFLDLPAPWDAIPHLDSVISVDEKVGLCCFSPCIEQVDKTLDVLEKYGWTDVEMVEIQGRQYESRRQMVRSLNDALERLRDIKRHKLQGVERRKRMFNNTIDSNDEKVGKRNEDGVPLTEKAKFNPFGKGSRIKEGDSNYKWKEVTKMEAEIKSHTSYLTFAFKVVNRSRDDEKVNEILRSTEK
notes: TRM61, catalytic subunit of the tRNA m1A58 methyltransferase, S. cerevisiae, full length; also called TRM61 subunit; catalytic subunit; source: bacteria, expression plasmid pETDuet-TRM6-TRM61, purified as the TRM6-TRM61 complex (Ni2+-NTA, Superdex 200)
Consider B1, for which, in series [1], the binding result is “binds”.

B2: TRM6-TRM61 heterodimer from Saccharomyces cerevisiae (complex, S. cerevisiae)
chain 1: MNALTTIDFNQHVIVRLPSKNYKIVELKPNTSVSLGKFGAFEVNDIIGYPFGLTFEIYYDGEEVSSDENRDSKPKNKIPIGKVRLLSQEIKDVNNDKDDGQSEPPLSIKEKSVSLELSSIDSSATNQNLVNMGSKAQELTVEEIEKMKQESLSSKEIIDKIIKSHKSFHNKTVYSQEKYVNRKKQKFAKYFTVEYLSSSNLLQFLIDKGDIQRVLDMSQESMGMLLNLANIQSEGNYLCMDETGGLLVYFLLERMFGGDNESKSKGKVIVIHENEHANLDLLKFANYSEKFIKEHVHTISLLDFFEPPTLQEIQSRFTPLPKEEARALKGGKKNSYYRKLRWYNTQWQILELTGEFLYDGLVMATTLHLPTLVPKLAEKIHGSRPIVCYGQFKETLLELAHTLYSDLRFLAPSILETRCRPYQSIRGKLHPLMTMKGGGGYLMWCHRVIPAPEPVSENATAADSSEKLAEHGAKKQKI
chain 2: MSTNCFSGYKDLIKEGDLTLIWVSRDNIKPVRMHSEEVFNTRYGSFPHKDIIGKPYGSQIAIRTKGSNKFAFVHVLQPTPELWTLSLPHRTQIVYTPDSSYIMQRLNCSPHSRVIEAGTGSGSFSHAFARSVGHLFSFEFHHIRYEQALEEFKEHGLIDDNVTITHRDVCQGGFLIKKGDTTSYEFGNNETAASLNANVVFLDLPAPWDAIPHLDSVISVDEKVGLCCFSPCIEQVDKTLDVLEKYGWTDVEMVEIQGRQYESRRQMVRSLNDALERLRDIKRHKLQGVERRKRMFNNTIDSNDEKVGKRNEDGVPLTEKAKFNPFGKGSRIKEGDSNYKWKEVTKMEAEIKSHTSYLTFAFKVVNRSRDDEKVNEILRSTEK
notes: TRM6, S. cerevisiae, full length; as the chain of m1; TRM61, S. cerevisiae, full length; as the chain of m2; 1:1 heterodimer of TRM6 and TRM61 (the asymmetric unit of the crystal); two of them form the 2:2 heterotetramer; also called TRM6-TRM61 holoenzyme; TRM6-TRM61 complex; source: bacteria, expression plasmid pETDuet-TRM6-TRM61, purified (Ni2+-NTA, Superdex 200)
B2: in series [2], the binding result is listed as “binds”.
